Data: patent publication US20180155451A1 (published 2018)

B1: GpH7-B3 variant L234_06M/GpL16-k0 (antibody, human IgG1, kappa)
heavy: not shown
light: DIVMTQSPLSLPVTPGEPASISCQASESLVHSNRNTYLHWYLQKPGQSPQLLIYKVSNRFSGVPDRFSGSGSGTDFTLKISRVEAEDVGVYYCSQNTHVPPTFGQGTKVEIERTVAAPSVFIFPPSDEQLKSGTASVVCLLNNFYPREAKVQWKVDNALQSGNSQESVTEQDSKDSTYSLSSTLTLSKADYEKHKVYACEVTHQGLSSPVTKSFNRGEC
notes: homodimerized; also called Ho Ab L234_06M
B2: GpH7-B3 variant P238_08L/GpL16-k0 (antibody, human IgG1, kappa)
heavy: not shown
light: B1 light
notes: homodimerized; also called Ho Ab P238_08L
B3: GpH7-B3 variant P271_11K/GpL16-k0 (antibody, human IgG1, kappa)
heavy: not shown
light: B1 light
notes: homodimerized; also called Ho Ab P271_11K
B4: GpH7-B3 variant P271_06M/GpL16-k0 (antibody, human IgG1, kappa)
heavy: not shown
light: B1 light
notes: homodimerized; also called Ho Ab P271_06M
B5: GpH7-B3 variant Q295_02A/GpL16-k0 (antibody, human IgG1, kappa)
heavy: not shown
light: B1 light
notes: homodimerized; also called Ho Ab Q295_02A
B6: GpH7-B3 variant P271_12R/GpL16-k0 (antibody, human IgG1, kappa)
heavy: not shown
light: B1 light
notes: homodimerized; also called Ho Ab P271_12R
B7: GpH7-B3 variant P238_10E/GpL16-k0 (antibody, human IgG1, kappa)
heavy: not shown
light: B1 light
notes: homodimerized; also called Ho Ab P238_10E
B8: GpH7-B3 variant L328_14T/GpL16-k0 (antibody, human IgG1, kappa)
heavy: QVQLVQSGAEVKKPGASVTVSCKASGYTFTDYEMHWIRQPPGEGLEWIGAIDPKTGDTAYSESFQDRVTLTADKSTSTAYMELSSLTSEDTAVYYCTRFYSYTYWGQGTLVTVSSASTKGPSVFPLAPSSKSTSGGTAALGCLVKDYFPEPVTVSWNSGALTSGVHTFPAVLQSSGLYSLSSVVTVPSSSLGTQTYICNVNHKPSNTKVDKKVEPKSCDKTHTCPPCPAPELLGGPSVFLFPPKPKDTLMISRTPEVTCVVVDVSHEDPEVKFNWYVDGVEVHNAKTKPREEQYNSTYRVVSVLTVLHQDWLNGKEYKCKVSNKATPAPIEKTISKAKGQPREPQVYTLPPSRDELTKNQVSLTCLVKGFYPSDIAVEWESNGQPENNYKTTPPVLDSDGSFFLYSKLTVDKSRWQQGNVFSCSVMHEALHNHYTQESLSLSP
light: B1 light
notes: homodimerized; also called Ho Ab L328_14T
B9: GpH7-B3 variant P271_20W/GpL16-k0 (antibody, human IgG1, kappa)
heavy: not shown
light: B1 light
notes: homodimerized; also called Ho Ab P271_20W
B10: GpH7-B3 variant L234_07I/GpL16-k0 (antibody, human IgG1, kappa)
heavy: not shown
light: B1 light
notes: homodimerized; also called Ho Ab L234_07I
B11: GpH7-B3 variant P271_07I/GpL16-k0 (antibody, human IgG1, kappa)
heavy: not shown
light: B1 light
notes: homodimerized; also called Ho Ab P271_07I
B12: GpH7-B3 variant P271_02A/GpL16-k0 (antibody, human IgG1, kappa)
heavy: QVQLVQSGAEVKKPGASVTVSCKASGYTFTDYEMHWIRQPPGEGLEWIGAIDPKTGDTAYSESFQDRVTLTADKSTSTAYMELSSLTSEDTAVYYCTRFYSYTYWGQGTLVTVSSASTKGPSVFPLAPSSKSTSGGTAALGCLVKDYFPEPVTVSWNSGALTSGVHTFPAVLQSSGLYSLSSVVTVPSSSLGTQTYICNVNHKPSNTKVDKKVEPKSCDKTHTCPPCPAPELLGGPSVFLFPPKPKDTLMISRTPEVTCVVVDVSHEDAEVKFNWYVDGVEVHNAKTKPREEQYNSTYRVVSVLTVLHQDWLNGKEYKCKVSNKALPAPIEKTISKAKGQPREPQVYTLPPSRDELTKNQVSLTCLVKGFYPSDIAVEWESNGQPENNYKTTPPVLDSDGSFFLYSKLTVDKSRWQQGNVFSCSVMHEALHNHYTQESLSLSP
light: B1 light
notes: homodimerized; also called Ho Ab P271_02A
B13: GpH7-B3 variant L234_15Y/GpL16-k0 (antibody, human IgG1, kappa)
heavy: not shown
light: B1 light
notes: homodimerized; also called Ho Ab L234_15Y; GpH7-B3-01-15Y/GpL16-k0
B14: GpH7-B3 variant P271_04F/GpL16-k0 (antibody, human IgG1, kappa)
heavy: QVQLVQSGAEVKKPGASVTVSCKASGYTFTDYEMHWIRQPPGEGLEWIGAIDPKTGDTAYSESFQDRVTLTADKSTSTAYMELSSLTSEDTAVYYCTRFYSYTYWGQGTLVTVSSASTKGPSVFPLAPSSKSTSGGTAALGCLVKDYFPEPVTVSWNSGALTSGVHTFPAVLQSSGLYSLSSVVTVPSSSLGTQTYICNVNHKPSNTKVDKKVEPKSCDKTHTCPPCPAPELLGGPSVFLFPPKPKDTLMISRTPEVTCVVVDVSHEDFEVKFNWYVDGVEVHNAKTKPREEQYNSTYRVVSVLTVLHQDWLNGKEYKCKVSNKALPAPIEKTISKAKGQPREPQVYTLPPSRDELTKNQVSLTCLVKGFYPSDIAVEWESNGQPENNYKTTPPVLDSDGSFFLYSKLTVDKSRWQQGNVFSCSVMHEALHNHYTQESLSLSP
light: B1 light
notes: homodimerized; also called Ho Ab P271_04F
B15: GpH7-B3 variant L328_10E/GpL16-k0 (antibody, human IgG1, kappa)
heavy: not shown
light: B1 light
notes: homodimerized; also called Ho Ab L328_10E
B16: GpH7-B3 variant P238_06M/GpL16-k0 (antibody, human IgG1, kappa)
heavy: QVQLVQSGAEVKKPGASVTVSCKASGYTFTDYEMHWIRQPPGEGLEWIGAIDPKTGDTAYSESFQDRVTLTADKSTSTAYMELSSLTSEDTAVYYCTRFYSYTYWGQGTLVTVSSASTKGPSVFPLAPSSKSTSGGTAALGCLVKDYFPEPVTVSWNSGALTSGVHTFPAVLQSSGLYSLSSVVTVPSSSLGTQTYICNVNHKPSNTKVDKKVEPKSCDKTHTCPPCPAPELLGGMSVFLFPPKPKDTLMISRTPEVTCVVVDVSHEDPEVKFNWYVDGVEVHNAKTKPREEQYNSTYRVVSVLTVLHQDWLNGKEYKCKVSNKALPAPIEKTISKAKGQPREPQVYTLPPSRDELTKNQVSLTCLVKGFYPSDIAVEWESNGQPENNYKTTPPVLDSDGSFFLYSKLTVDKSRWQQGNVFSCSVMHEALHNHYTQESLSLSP
light: B1 light
notes: homodimerized; also called Ho Ab P238_06M
B17: GpH7-B3 variant L328_19Q/GpL16-k0 (antibody, human IgG1, kappa)
heavy: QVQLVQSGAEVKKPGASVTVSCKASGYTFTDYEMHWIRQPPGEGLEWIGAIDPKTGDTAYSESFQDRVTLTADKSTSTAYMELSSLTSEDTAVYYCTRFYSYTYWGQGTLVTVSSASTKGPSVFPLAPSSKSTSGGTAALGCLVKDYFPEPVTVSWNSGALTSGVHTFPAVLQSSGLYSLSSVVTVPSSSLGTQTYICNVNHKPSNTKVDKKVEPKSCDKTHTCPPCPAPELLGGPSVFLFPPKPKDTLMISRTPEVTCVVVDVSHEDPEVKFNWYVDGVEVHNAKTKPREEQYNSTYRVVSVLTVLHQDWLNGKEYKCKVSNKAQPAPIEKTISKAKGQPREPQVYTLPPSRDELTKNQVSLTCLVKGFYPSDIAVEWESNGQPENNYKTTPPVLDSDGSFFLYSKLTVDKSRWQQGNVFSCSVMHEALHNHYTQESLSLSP
light: B1 light
notes: homodimerized; also called Ho Ab L328_19Q
B18: GpH7-B3 variant P238_04F/GpL16-k0 (antibody, human IgG1, kappa)
heavy: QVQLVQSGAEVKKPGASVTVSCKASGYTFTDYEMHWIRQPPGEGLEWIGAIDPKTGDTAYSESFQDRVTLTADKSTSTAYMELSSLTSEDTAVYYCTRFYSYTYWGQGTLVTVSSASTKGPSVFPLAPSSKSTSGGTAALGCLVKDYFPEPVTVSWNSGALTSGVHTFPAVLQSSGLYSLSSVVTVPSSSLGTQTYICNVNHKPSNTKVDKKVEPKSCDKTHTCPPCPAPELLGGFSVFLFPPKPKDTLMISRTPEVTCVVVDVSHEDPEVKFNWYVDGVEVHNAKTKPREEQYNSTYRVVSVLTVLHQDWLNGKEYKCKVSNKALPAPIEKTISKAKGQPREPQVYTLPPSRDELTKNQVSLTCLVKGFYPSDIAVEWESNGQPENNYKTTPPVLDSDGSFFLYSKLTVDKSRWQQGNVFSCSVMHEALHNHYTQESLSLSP
light: B1 light
notes: homodimerized; also called Ho Ab P238_04F
B19: GpH7-B3 variant P238_15Y/GpL16-k0 (antibody, human IgG1, kappa)
heavy: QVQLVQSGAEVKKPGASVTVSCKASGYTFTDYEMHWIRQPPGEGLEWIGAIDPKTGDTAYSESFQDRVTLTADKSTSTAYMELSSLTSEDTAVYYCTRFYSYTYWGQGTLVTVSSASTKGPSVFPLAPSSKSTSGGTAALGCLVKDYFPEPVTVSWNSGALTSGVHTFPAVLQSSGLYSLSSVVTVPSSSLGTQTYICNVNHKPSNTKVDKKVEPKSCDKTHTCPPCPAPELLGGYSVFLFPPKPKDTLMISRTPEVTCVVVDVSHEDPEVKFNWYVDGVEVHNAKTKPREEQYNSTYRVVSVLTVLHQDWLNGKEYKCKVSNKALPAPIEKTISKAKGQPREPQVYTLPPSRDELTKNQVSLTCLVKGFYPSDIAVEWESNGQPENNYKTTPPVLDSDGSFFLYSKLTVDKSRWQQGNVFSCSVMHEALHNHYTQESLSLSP
light: B1 light
notes: homodimerized; also called Ho Ab P238_15Y
B20: GpH7-B3 variant L328_03V/GpL16-k0 (antibody, human IgG1, kappa)
heavy: not shown
light: B1 light
notes: homodimerized; also called Ho Ab L328_03V
B21: GpH7-B3 variant P271_13S/GpL16-k0 (antibody, human IgG1, kappa)
heavy: not shown
light: B1 light
notes: homodimerized; also called Ho Ab P271_13S
B22: GpH7-B3 variant L234_10E/GpL16-k0 (antibody, human IgG1, kappa)
heavy: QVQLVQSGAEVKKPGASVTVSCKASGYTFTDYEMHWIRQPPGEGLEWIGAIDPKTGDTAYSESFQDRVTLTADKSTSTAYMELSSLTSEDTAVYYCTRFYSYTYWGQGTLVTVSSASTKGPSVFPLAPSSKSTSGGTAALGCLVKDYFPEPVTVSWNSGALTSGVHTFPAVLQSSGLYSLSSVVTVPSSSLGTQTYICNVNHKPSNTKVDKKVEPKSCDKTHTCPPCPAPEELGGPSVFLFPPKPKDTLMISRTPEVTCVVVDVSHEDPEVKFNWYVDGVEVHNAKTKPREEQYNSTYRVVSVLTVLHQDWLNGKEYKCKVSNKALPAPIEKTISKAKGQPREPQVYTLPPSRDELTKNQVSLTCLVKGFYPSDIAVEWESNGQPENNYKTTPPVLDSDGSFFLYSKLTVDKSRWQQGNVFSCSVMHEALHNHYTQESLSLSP
light: B1 light
notes: homodimerized; also called Ho Ab L234_10E; GpH7-B16/GpL16-k0
B23: GpH7-B3 variant L328_20W/GpL16-k0 (antibody, human IgG1, kappa)
heavy: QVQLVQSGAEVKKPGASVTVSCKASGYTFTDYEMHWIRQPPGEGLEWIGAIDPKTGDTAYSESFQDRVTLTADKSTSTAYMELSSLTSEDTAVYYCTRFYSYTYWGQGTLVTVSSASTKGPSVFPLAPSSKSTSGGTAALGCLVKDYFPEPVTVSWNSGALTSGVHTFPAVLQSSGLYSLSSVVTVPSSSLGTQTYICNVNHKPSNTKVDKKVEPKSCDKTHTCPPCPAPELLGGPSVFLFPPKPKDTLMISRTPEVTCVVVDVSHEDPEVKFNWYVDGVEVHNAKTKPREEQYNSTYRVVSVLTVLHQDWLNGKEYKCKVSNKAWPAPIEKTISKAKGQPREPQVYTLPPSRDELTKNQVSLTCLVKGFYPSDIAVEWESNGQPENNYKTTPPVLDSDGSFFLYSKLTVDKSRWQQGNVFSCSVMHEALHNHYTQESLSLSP
light: B1 light
notes: homodimerized; also called Ho Ab L328_20W
B24: GpH7-B3 variant P271_03V/GpL16-k0 (antibody, human IgG1, kappa)
heavy: not shown
light: B1 light
notes: homodimerized; also called Ho Ab P271_03V
B25: GpH7-B3 variant P238_03V/GpL16-k0 (antibody, human IgG1, kappa)
heavy: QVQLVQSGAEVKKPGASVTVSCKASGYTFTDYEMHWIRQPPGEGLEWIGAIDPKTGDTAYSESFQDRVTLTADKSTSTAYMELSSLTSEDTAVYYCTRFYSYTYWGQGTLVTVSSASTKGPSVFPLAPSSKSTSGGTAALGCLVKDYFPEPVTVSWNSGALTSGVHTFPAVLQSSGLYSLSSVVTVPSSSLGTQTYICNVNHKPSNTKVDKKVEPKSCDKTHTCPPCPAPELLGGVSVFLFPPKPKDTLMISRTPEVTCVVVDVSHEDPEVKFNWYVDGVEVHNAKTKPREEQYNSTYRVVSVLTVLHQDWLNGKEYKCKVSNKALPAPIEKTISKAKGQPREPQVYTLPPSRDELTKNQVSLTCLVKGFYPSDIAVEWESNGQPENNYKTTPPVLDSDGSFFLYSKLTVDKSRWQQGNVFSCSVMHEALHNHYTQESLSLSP
light: B1 light
notes: homodimerized; also called Ho Ab P238_03V
B26: GpH7-A5/GpH7-B3 variant E269_04F/GpL16-k0 (antibody, human IgG1, kappa)
heavy 1: not shown
heavy 2: not shown
light: B1 light
notes: heterodimerized; also called He Ab E269_04F
B27: GpH7-A5/GpH7-B3 variant E269_16H/GpL16-k0 (antibody, human IgG1, kappa)
heavy 1: not shown
heavy 2: not shown
light: B1 light
notes: heterodimerized; also called He Ab E269_16H
B28: GpH7-A5/GpH7-B3 variant E269_18N/GpL16-k0 (antibody, human IgG1, kappa)
heavy 1: not shown
heavy 2: not shown
light: B1 light
notes: heterodimerized; also called He Ab E269_18N
B29: GpH7-A5/GpH7-B3 variant E333_01G/GpL16-k0 (antibody, human IgG1, kappa)
heavy 1: not shown
heavy 2: not shown
light: B1 light
notes: heterodimerized; also called He Ab E333_01G
B30: GpH7-A5/GpH7-B3 variant A330_16H/GpL16-k0 (antibody, human IgG1, kappa)
heavy 1: not shown
heavy 2: not shown
light: B1 light
notes: heterodimerized; also called He Ab A330_16H
B31: GpH7-A5/GpH7-B3 variant E269_20W/GpL16-k0 (antibody, human IgG1, kappa)
heavy 1: not shown
heavy 2: not shown
light: B1 light
notes: heterodimerized; also called He Ab E269_20W
B32: GpH7-A5/GpH7-B3 variant E269_03V/GpL16-k0 (antibody, human IgG1, kappa)
heavy 1: not shown
heavy 2: not shown
light: B1 light
notes: heterodimerized; also called He Ab E269_03V
B33: GpH7-A5/GpH7-B3 variant E269_05P/GpL16-k0 (antibody, human IgG1, kappa)
heavy 1: not shown
heavy 2: not shown
light: B1 light
notes: heterodimerized; also called He Ab E269_05P
B34: GpH7-A5/GpH7-B3 variant A330_14T/GpL16-k0 (antibody, human IgG1, kappa)
heavy 1: not shown
heavy 2: not shown
light: B1 light
notes: heterodimerized; also called He Ab A330_14T
B35: GpH7-A5/GpH7-B3 variant A330_09D/GpL16-k0 (antibody, human IgG1, kappa)
heavy 1: not shown
heavy 2: not shown
light: B1 light
notes: heterodimerized; also called He Ab A330_09D
B36: GpH7-A5/GpH7-B3 variant A330_11K/GpL16-k0 (antibody, human IgG1, kappa)
heavy 1: not shown
heavy 2: not shown
light: B1 light
notes: heterodimerized; also called He Ab A330_11K
B37: GpH7-A5/GpH7-B3 variant E269_13S/GpL16-k0 (antibody, human IgG1, kappa)
heavy 1: not shown
heavy 2: not shown
light: B1 light
notes: heterodimerized; also called He Ab E269_13S
B38: GpH7-A5/GpH7-B3 variant E269_06M/GpL16-k0 (antibody, human IgG1, kappa)
heavy 1: not shown
heavy 2: not shown
light: B1 light
notes: heterodimerized; also called He Ab E269_06M
B39: GpH7-A5/GpH7-B3 variant E269_15Y/GpL16-k0 (antibody, human IgG1, kappa)
heavy 1: not shown
heavy 2: not shown
light: B1 light
notes: heterodimerized; also called He Ab E269_15Y
B40: GpH7-A5/GpH7-B3 variant E269_07I/GpL16-k0 (antibody, human IgG1, kappa)
heavy 1: not shown
heavy 2: not shown
light: B1 light
notes: heterodimerized; also called He Ab E269_07I
B41: GpH7-A5/GpH7-B3 variant E333_07I/GpL16-k0 (antibody, human IgG1, kappa)
heavy 1: not shown
heavy 2: not shown
light: B1 light
notes: heterodimerized; also called He Ab E333_07I
B42: GpH7-A5/GpH7-B3 variant E269_02A/GpL16-k0 (antibody, human IgG1, kappa)
heavy 1: not shown
heavy 2: not shown
light: B1 light
notes: heterodimerized; also called He Ab E269_02A
B43: GpH7-A5/GpH7-B3 variant A327_09D/GpL16-k0 (antibody, human IgG1, kappa)
heavy 1: not shown
heavy 2: not shown
light: B1 light
notes: heterodimerized; also called He Ab A327_09D
B44: GpH7-A5/GpH7-B3 variant E269_19Q/GpL16-k0 (antibody, human IgG1, kappa)
heavy 1: not shown
heavy 2: not shown
light: B1 light
notes: heterodimerized; also called He Ab E269_19Q
B45: GpH7-A5/GpH7-B3 variant A327_06M/GpL16-k0 (antibody, human IgG1, kappa)
heavy 1: not shown
heavy 2: not shown
light: B1 light
notes: heterodimerized; also called He Ab A327_06M
B46: GpH7-A5/GpH7-B3 variant A327_03V/GpL16-k0 (antibody, human IgG1, kappa)
heavy 1: not shown
heavy 2: not shown
light: B1 light
notes: heterodimerized; also called He Ab A327_03V
B47: GpH7-A5/GpH7-B3 variant E333_05P/GpL16-k0 (antibody, human IgG1, kappa)
heavy 1: not shown
heavy 2: not shown
light: B1 light
notes: heterodimerized; also called He Ab E333_05P
B48: GpH7-A5/GpH7-B3 variant A330_08L/GpL16-k0 (antibody, human IgG1, kappa)
heavy 1: not shown
heavy 2: not shown
light: B1 light
notes: heterodimerized; also called He Ab A330_08L; GpH7-A5/GpH7-B3-20-08L/GpL16-k0
B49: GpH7-A5/GpH7-B3 variant A327_07I/GpL16-k0 (antibody, human IgG1, kappa)
heavy 1: not shown
heavy 2: not shown
light: B1 light
notes: heterodimerized; also called He Ab A327_07I
B50: GpH7-A5/GpH7-B3 variant E269_14T/GpL16-k0 (antibody, human IgG1, kappa)
heavy 1: not shown
heavy 2: not shown
light: B1 light
notes: heterodimerized; also called He Ab E269_14T
B51: GpH7-A5/GpH7-B3 variant A327_13S/GpL16-k0 (antibody, human IgG1, kappa)
heavy 1: not shown
heavy 2: not shown
light: B1 light
notes: heterodimerized; also called He Ab A327_13S
B52: GpH7-A5/GpH7-B3 variant E333_06M/GpL16-k0 (antibody, human IgG1, kappa)
heavy 1: not shown
heavy 2: not shown
light: B1 light
notes: heterodimerized; also called He Ab E333_06M
B53: GpH7-A5/GpH7-B3 variant E333_02A/GpL16-k0 (antibody, human IgG1, kappa)
heavy 1: not shown
heavy 2: not shown
light: B1 light
notes: heterodimerized; also called He Ab E333_02A
B54: GpH7-A5/GpH7-B3 variant A330_05P/GpL16-k0 (antibody, human IgG1, kappa)
heavy 1: not shown
heavy 2: not shown
light: B1 light
notes: heterodimerized; also called He Ab A330_05P
B55: GpH7-A5/GpH7-B3 variant E333_03V/GpL16-k0 (antibody, human IgG1, kappa)
heavy 1: not shown
heavy 2: not shown
light: B1 light
notes: heterodimerized; also called He Ab E333_03V
B56: GpH7-A5/GpH7-B3 variant E269_08L/GpL16-k0 (antibody, human IgG1, kappa)
heavy 1: not shown
heavy 2: not shown
light: B1 light
notes: heterodimerized; also called He Ab E269_08L
B57: GpH7-A5/GpH7-B3 variant A327_10E/GpL16-k0 (antibody, human IgG1, kappa)
heavy 1: not shown
heavy 2: not shown
light: B1 light
notes: heterodimerized; also called He Ab A327_10E
B58: GpH7-A5/GpH7-B3 variant E333_04F/GpL16-k0 (antibody, human IgG1, kappa)
heavy 1: not shown
heavy 2: not shown
light: B1 light
notes: heterodimerized; also called He Ab E333_04F
B59: GpH7-A5/GpH7-B3 variant E269_09D/GpL16-k0 (antibody, human IgG1, kappa)
heavy 1: not shown
heavy 2: not shown
light: B1 light
notes: heterodimerized; also called He Ab E269_09D
B60: GpH7-A5/GpH7-B3 variant E269_01G/GpL16-k0 (antibody, human IgG1, kappa)
heavy 1: not shown
heavy 2: not shown
light: B1 light
notes: heterodimerized; also called He Ab E269_01G

Target: T1, FcγRIa (human, UniProt P12314 16-292)
T1 construct: extracellular domain; also called FcgRI; CD64
Assay: SPR; vs GpH7-B3/GpL16-k0=100

T1 sequence (P12314 16-292): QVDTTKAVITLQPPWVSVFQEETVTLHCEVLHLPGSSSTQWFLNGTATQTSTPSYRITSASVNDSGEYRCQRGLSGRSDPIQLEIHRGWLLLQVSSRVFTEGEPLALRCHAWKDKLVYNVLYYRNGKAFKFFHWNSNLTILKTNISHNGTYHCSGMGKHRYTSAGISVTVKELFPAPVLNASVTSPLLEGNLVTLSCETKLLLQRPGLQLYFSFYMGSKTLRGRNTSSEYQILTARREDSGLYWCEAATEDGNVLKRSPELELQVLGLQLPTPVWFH

Ho/Con_1a | Binder
96.5 % of control | B1
100 % of control | B2
101 % of control | B3
102 % of control | B4
104 % of control | B5
101 % of control | B6
91.8 % of control | B7
98.6 % of control | B8
102 % of control | B9
99.5 % of control | B10
102 % of control | B11
102 % of control | B12
98.9 % of control | B13
100 % of control | B14
101 % of control | B15
100 % of control | B16
99.3 % of control | B17
98.7 % of control | B18
99 % of control | B19
99.2 % of control | B20
101 % of control | B21
79.6 % of control | B22
99.9 % of control | B23
102 % of control | B24
97.9 % of control | B25

Target: T1, FcγRIa
Assay: SPR; vs GpH7-A5/GpH7-B3/GpL16-k0=100

He/Con_1a | Binder
103 % of control | B26
106 % of control | B27
102 % of control | B28
103 % of control | B29
106 % of control | B30
105 % of control | B31
103 % of control | B32
102 % of control | B33
105 % of control | B34
109 % of control | B35
103 % of control | B36
103 % of control | B37
104 % of control | B38
106 % of control | B39
103 % of control | B40
102 % of control | B41
104 % of control | B42
103 % of control | B43

He/Con_1a | Binder
105 % of control | B44
103 % of control | B45
103 % of control | B46
102 % of control | B47
107 % of control | B48
104 % of control | B49
106 % of control | B50
102 % of control | B51
102 % of control | B52
103 % of control | B53
101 % of control | B54
105 % of control | B55
104 % of control | B56
103 % of control | B57
102 % of control | B58
107 % of control | B59
104 % of control | B60
